Results as given in patent US20250282881A1 (SHANGHAI EPIMAB BIOTHERAPEUTICS, published 2025).

T1: recombinant human OX40/His fusion protein (Novoprotein, CB17) (human, UniProt P43489 29-216)
T1 construct: Bought protein
T1 sequence: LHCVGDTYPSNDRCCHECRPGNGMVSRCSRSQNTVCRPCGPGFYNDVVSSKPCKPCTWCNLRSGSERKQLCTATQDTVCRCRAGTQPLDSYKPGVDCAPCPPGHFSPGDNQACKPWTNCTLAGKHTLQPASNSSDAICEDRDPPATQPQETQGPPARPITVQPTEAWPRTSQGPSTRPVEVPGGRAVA

B1: HuEM1007-044-6 (antibody, human IgG1, kappa, L234A L235A, V domains shown)
VH: EVQLVQSGAEVKKPGSSVKVSCKASGHTFSSSWMNWVRQAPGQGLEWMGRIYPGDEITNYNGKFKDRVTITADKSTSTAYMELSSLRSEDTAVYYCARDLLMPYWGQGTLVTVSS
VL: DIVMTQTPLSLPVTPGEPASISCRSSKSLLYSNGITYLYWYLQKPGQSPQLLIYQMSNLAPGVPDRFSSSGSGTDFTLKISRVEAEDVGVYYCAQNLELPFTFGQGTKLEIKR
notes: Humanized anti-OX40, human IgG1 LALA / kappa
B2: HuEM1007-044-1 (antibody, human IgG1, kappa, L234A L235A, V domains shown)
VH: EVQLVQSGAEVKKPGSSVKVSCKASGGTFSSSWMNWVRQAPGQGLEWMGRIYPGDEITNYNGKFKDRVTITADKSTSTAYMELSSLRSEDTAVYYCARDLLMPYWGQGTLVTVSS
VL: DIVMTQTPLSLPVTPGEPASISCRSSKSLLYSNGITYLYWYLQKPGQSPQLLIYQMSNLAPGVPDRFSGSGSGTDFTLKISRVEAEDVGVYYCAQNLELPFTFGQGTKLEIKR
notes: as for B1
B3: HuEM1007-044-2 (antibody, human IgG1, kappa, L234A L235A, V domains shown)
VH: EVQLVQSGAEVKKPGSSVKVSCKASGHTFSSSWMNWVRQAPGQGLEWMGRIYPGDEITNYNGKFKDRVTITADKSTSTAYMELSSLRSEDTAVYYCARDLLMPYWGQGTLVTVSS
VL: DIVMTQTPLSLPVTPGEPASISCRSSKSLLYSNGITYLYWYLQKPGQSPQLLIYQMSNLAPGVPDRFSGSGSGTDFTLKISRVEAEDVGVYYCAQNLELPFTFGQGTKLEIKR
notes: as for B1
B4: HuEM1007-044-3 (antibody, human IgG1, kappa, L234A L235A, V domains shown)
VH: EVQLVQSGAEVKKPGSSVKVSCKASGHTFSSSWMNWVRQAPGQGLEWIGRIYPGDEITNYNGKFKDRVTLTADKSTSTAYMELSSLRSEDTAVYYCARDLLMPYWGQGTLVTVSS
VL: DIVMTQTPLSLPVTPGEPASISCRSSKSLLYSNGITYLYWYLQKPGQSPQLLIYQMSNLAPGVPDRFSGSGSGTDFTLKISRVEAEDVGVYYCAQNLELPFTFGQGTKLEIKR
notes: as for B1
B5: HuEM1007-044-5 (antibody, human IgG1, kappa, L234A L235A, V domains shown)
VH: EVQLVQSGAEVKKPGSSVKVSCKASGGTFSSSWMNWVRQAPGQGLEWMGRIYPGDEITNYNGKFKDRVTITADKSTSTAYMELSSLRSEDTAVYYCARDLLMPYWGQGTLVTVSS
VL: DIVMTQTPLSLPVTPGEPASISCRSSKSLLYSNGITYLYWYLQKPGQSPQLLIYQMSNLAPGVPDRFSSSGSGTDFTLKISRVEAEDVGVYYCAQNLELPFTFGQGTKLEIKR
notes: as for B1
B6: HuEM1007-044-14 (antibody, human IgG1, kappa, L234A L235A, V domains shown)
VH: EVQLVQSGAEVKKPGSSVKVSCKASGGTFSSSWMNWVRQRPGKGLEWMGRIYPGDEITNYNAKFKDRVTITADKSTSTAYMELSSLRSEDTAVYYCARDLLMPYWGQGTLVTVSS
VL: DIVMTQTPLSLPVTPGEPASISCRSSKSLLYSNAITYLYWYLQKPGQSPQLLIYQMSNLAPGVPDRFSSSGSGTDFTLKISRVEAEDVGVYYCAQNLELPFTFGQGTKLEIKR
notes: as for B1
B7: EM1007-mAb044c-15 (antibody, human IgG1, kappa, L234A L235A, V domains shown)
VH: EVQLVQSGAEVKKPGSSVKVSCKASGGTFSSSWMNWVRQRPGKGLEWMGRIYPGDEITNYNAKFKDRVTITADKSTSTAYMELSSLRSEDTAVYYCARDLLMPYWGQGTLVTVSS
VL: DIVMTQTAFSNPVTLGTSASISCRSSKSLLYSNAITYLYWYLQKPGQSPHLLIYQMSNLAPGVPDRFSSSGSGTDFTLRISRVEAEDVGIYYCAQNLELPFTFGSGTKLEIKR
B8: EM1007-mAb044c-17 (antibody, human IgG1, kappa, L234A L235A, V domains shown)
VH: EVQLQQSGAEVKKPGSSVKVSCKASGHAFSSSWMNWVKQRPGKGLEWIGRIYPGDEITNYNAKFKDKATLTADKSTSTAYMELSSLRSEDTAVYYCARDLLMPYWGQGTLVTVSS
VL: DIVMTQTAFSNPVTLGTSASISCRSSKSLLYSNAITYLYWYLQKPGQSPHLLIYQMSNLAPGVPDRFSSSGSGTDFTLRISRVEAEDVGIYYCAQNLELPFTFGSGTKLEIKR
B9: HuEM1007-044-7 (antibody, human IgG1, kappa, L234A L235A, V domains shown)
VH: EVQLVQSGAEVKKPGSSVKVSCKASGHTFSSSWMNWVRQAPGQGLEWIGRIYPGDEITNYNGKFKDRVTLTADKSTSTAYMELSSLRSEDTAVYYCARDLLMPYWGQGTLVTVSS
VL: DIVMTQTPLSLPVTPGEPASISCRSSKSLLYSNGITYLYWYLQKPGQSPQLLIYQMSNLAPGVPDRFSSSGSGTDFTLKISRVEAEDVGVYYCAQNLELPFTFGQGTKLEIKR
notes: as for B1
B10: HuEM1007-044-8 (antibody, human IgG1, kappa, L234A L235A, V domains shown)
VH: EVQLVQSGAEVKKPGSSVKVSCKASGHTFSSSWMNWVKQAPGKGLEWIGRIYPGDEITNYNGKFKDKVTLTADKSTSTAYMELSSLRSEDTAVYYCARDLLMPYWGQGTLVTVSS
VL: DIVMTQTPLSLPVTPGEPASISCRSSKSLLYSNGITYLYWYLQKPGQSPQLLIYQMSNLAPGVPDRFSSSGSGTDFTLKISRVEAEDVGVYYCAQNLELPFTFGQGTKLEIKR
notes: as for B1
B11: EM1007-mAb044c-9 (antibody, human IgG1, kappa, L234A L235A, V domains shown)
VH: QVQLQQSGPELVKPGASVTISCKASGHAFSSSWMNWVKQRPGKGLEWIGRIYPGDEITNYNAKFKDKATLTADKSSSTAYMQLSSLTFEDSAVYFCARDLLMPYWGQGTLVTVSA
VL: DIVMTQTAFSNPVTLGTSASISCRSSKSLLYSNGITYLYWYLQKPGQSPHLLIYQMSNLAPGVPDRFSSSGSGTDFTLRISRVEAEDVGIYYCAQNLELPFTFGSGTKLEIKR
B12: EM1007-mAb044c-10 (antibody, human IgG1, kappa, L234A L235A, V domains shown)
VH: QVQLQQSGPELVKPGASVTISCKASGHAFSSSWMNWVKQRPGKGLEWIGRIYPGDEITNYNGKFKDKATLTADKSSSTAYMQLSSLTFEDSAVYFCARDLLMPYWGQGTLVTVSA
VL: DIVMTQTAFSNPVTLGTSASISCRSSKSLLYSNAITYLYWYLQKPGQSPHLLIYQMSNLAPGVPDRFSSSGSGTDFTLRISRVEAEDVGIYYCAQNLELPFTFGSGTKLEIKR
B13: EM1007-mAb044c-11 (antibody, human IgG1, kappa, L234A L235A, V domains shown)
VH: QVQLQQSGPELVKPGASVTISCKASGHAFSSSWMNWVKQRPGKGLEWIGRIYPGDEITNYNAKFKDKATLTADKSSSTAYMQLSSLTFEDSAVYFCARDLLMPYWGQGTLVTVSA
VL: DIVMTQTAFSNPVTLGTSASISCRSSKSLLYSNAITYLYWYLQKPGQSPHLLIYQMSNLAPGVPDRFSSSGSGTDFTLRISRVEAEDVGIYYCAQNLELPFTFGSGTKLEIKR
B14: EM1007-mAb044c-12 (antibody, human IgG1, kappa, L234A L235A, V domains shown)
VH: QVQLQQSGPELVKPGASVTISCKASGHAFSSSWMNWVKQRPGKGLEWIGRIYPGDEITNYNGKFKDKATLTADKSSSTAYMQLSSLTFEDSAVYFCARDLLMPYWGQGTLVTVSA
VL: DIVMTQTPLSLPVTPGEPASISCRSSKSLLYSNGITYLYWYLQKPGQSPQLLIYQMSNLAPGVPDRFSGSGSGTDFTLKISRVEAEDVGVYYCAQNLELPFTFGQGTKLEIKR

Target: T1, recombinant human OX40/His fusion …
Test: BLI (Octet RED96), antibody on AHC sensor, OX40/His as analyte, test group 1
Experimental: (§1) All 17 antibodies in Table 4 were expressed by transient transfection of HEK293 cell, purified by Protein A chromatography, and assayed for and ranked by dissociation rate constant (koff). Briefly, antibodies binding affinities and kinetics were characterized by Octet® RED96 biolayer interferometry (Pall FortéBio LLC). Antibodies were captured by Anti-hIgG Fc Capture (AHC) Biosensors (Pall) at a concentration of 100 nM for 120 seconds. After that, sensors were dipped into running buffer (1× pH 7.2 PBS, 0.05% Tween 20, 0.1% BSA) for 60 seconds to check the baseline, then dipped into recombinant human OX40/His fusion protein (Novoprotein, CB17) at assigned concentration for 200 seconds to measure binding, followed by dipped into running buffer for 600 seconds for dissociation. The assay was conducted in four test groups (as listed in Table 5) all containing the EM1007-044c chimeric antibody as the basis for normalization. The association and dissociation curves were fitted to a 1:1 Langmuir binding model using ForteBio Data Analysis software (Pall) to obtain the off-rate constants as shown in Table 5 below. The off-rate of each antibody was compared to that of the EM1007-mAb044c chimeric antibody in the same test group obtained in parallel to produce the corresponding off-rate ratio, serving as a normalized index. […]

First: B1
Second: B2
The “Normalized Index (off-rate ratio to EM1007-mAb044c)” value of the first is higher: 331% for the first, 306% for the second.

Compared with B3, B4 is lower in “Normalized Index (off-rate ratio to EM1007-mAb044c)” value: 281% for the first, 255% for the second.

B5 was tested, and the “Normalized Index (off-rate ratio to EM1007-mAb044c)” value was 243%.

B1 and B2 are within 1.5-fold of each other in koff: 0.00111 s⁻¹ for the first, 0.00103 s⁻¹ for the second.

B3 and B4 are within 1.5-fold of each other in koff: 0.000944 s⁻¹ for the first, 0.000859 s⁻¹ for the second.

For B5, the koff was 0.000818 s⁻¹.

Target: T1, recombinant human OX40/His fusion …
Test: BLI (Octet RED96), antibody on AHC sensor, OX40/His as analyte, test group 4
Experimental: as §1

Compared with B6, B7 is lower in “Normalized Index (off-rate ratio to EM1007-mAb044c)” value: 341% for the first, 340% for the second.

B8 was tested, and the “Normalized Index (off-rate ratio to EM1007-mAb044c)” value was 92%.

B6 and B7 are within 1.5-fold of each other in koff: 0.000952 s⁻¹ for the first, 0.000949 s⁻¹ for the second.

For B8, the koff was 0.000256 s⁻¹.

Target: T1, recombinant human OX40/His fusion …
Test: BLI (Octet RED96), antibody on AHC sensor, OX40/His as analyte, test group 2
Experimental: as §1

Going from B9 to B10, the “Normalized Index (off-rate ratio to EM1007-mAb044c)” value falls from 343% to 317%.

Compared with B11, B12 is lower in “Normalized Index (off-rate ratio to EM1007-mAb044c)” value: 97% for the first, 94% for the second.

Going from B13 to B14, the “Normalized Index (off-rate ratio to EM1007-mAb044c)” value rises from 100% to 255%.

B9 and B10 are within 1.5-fold of each other in koff: 0.00109 s⁻¹ for the first, 0.00101 s⁻¹ for the second.

B11 and B12 are within 1.5-fold of each other in koff: 0.000309 s⁻¹ for the first, 0.000299 s⁻¹ for the second.

Going from B13 to B14, the koff rises from 0.000317 s⁻¹ to 0.00081 s⁻¹ (2.6-fold).
